The values that follow come from EP4814009A1 (Medpacto Inc., dated 2026).

In this test the target is T1, biotinylated TGF-β1 (R&D Systems, Catalog #NFTG0) (UniProt P01137 279-390, biotinylated (sites not given)).
T1 construct: Detection reagent of the sandwich ELISA, 1:50 diluted in PBS
The experiment in a line: sandwich ELISA, simultaneous binding of EDB-FN-6x His (coated) and biotinylated TGF-β1. (In an ELISA, binding on a coated surface is turned into a signal by an enzyme label.)

T1 sequence (P01137 279-390 limits assumed): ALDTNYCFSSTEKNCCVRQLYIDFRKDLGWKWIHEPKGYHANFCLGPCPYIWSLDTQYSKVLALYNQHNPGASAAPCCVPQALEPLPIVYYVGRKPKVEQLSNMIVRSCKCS

B1: Anti-EDB-FN scFv-TGFβ Trap (other)
chain: EVQLLESGGGLVQPGGSLRLSCAASGFTFSSFSMSWVRQAPGKGLEWVSSISGSSGTTYYADSVKGRFTISRDNSKNTLYLQMNSLRAEDTAVYYCAKPFPYFDYWGQGTLVTVSSGGGGSGGGGSGGGGSEIVLTQSPGTLSLSPGERATLSCRASQSVSSSFLAWYQQKPGQAPRLLIYYASSRATGIPDRFSGSGSGTDFTLTISRLEPEDFAVYYCQQTGRIPPTFGQGTKVEIKSSSSGSSSSGSSSSGIPPHVQKSVNNDMIVTDNNGAVKFPQLCKFCDVRFSTCDNQKSCMSNCSITSICEKPQEVCVAVWRKNDENITLETVCHDPKLPYHDFILEDAASPKCIMKEKKKPGETFFMCSCSSDECNDNIIFSEEYNTSNPD
notes: L19 scFv fused onto the TGFβ Trap without Fc; also called Anti-EDB-FN scFv-TGFβ Trap without Fc fusion
Consider B1, for which the binding result was “binds”.
